B1: Cyno FcRn (receptor, Cynomolgus)
chain 1: AESHLSLLYHLTAVSSPAPGTPAFWVSGWLGPQQYLSYDSLRGQAEPCGAWVWENQVSWYWEKETTDLRIKEKLFLEAFKALGGKGPYTLQGLLGCELSPDNTSVPTAKFALNGEEFMNFDLKQGTWGGDWPEALAISQRWQQQDKAANKELTFLLFSCPHRLREHLERGRGNLEWKEPPSMRLKARPGNPGFSVLTCSAFSFYPPELQLRFLRNGMAAGTGQGDFGPNSDGSFHASSSLTVKSGDEHHYCCIVQHAGLAQPLRVELETPAKSS
chain 2: IQRTPKIQVYSRHPPENGKPNFLNCYVSGFHPSDIEVDLLKNGEKMGKVEHSDLSFSKDWSFYLLYYTEFTPNEKDEYACRVNHVTLSGPRTVKWDRDM
notes: also called Cynomolgus FcRn; purified Cyno FcRn

Assays:
Cyno FcRn = biological target: B1; test: SPR (Biacore-3000), Cyno FcRn amine-coupled on CM5 chip (200 RU), antibody as analyte, pH 6.0, bivalent binding model
Method: Purified Cyno FcRn was coupled onto CM5 chip using the amine coupling method(200RU). Biacore analysis was performed on a Biacore-3000 instrument. The chip was regenerated between each binding using 7.4 pH Buffer.
Affinity analysis of FMEH-IgG4PLA and FMEH-IgG4PLA-FH1-5 to human or Cynomolgus FcRn: Surface Plasmon resonance analysis was used to measure the association and dissociation rate constant for binding of FMEH-IgG4PLA and FMEH-IgG4PLA-FH1-5 to immobilized human or Cyno FcRn, using BIAcore 3000 instrument (Biacore AB, Uppsala, Sweden) and all Biacore experiments were performed at 25° C. The carboxylated dextran matrix of a CM5 sensor chip was used to couple the purified human or Cyno FcRn, by amine coupling chemistry to obtain 280 RU or 200 RU surface density, respectively. […] The data were analyzed by the BIA evaluation software 3.2 assuming bivalent binding model.

human FcRn = biological target: T1, human FcRn (human, UniProt P55899 24-297; P61769 21-119, limits assumed); test: SPR (Biacore-3000), human FcRn amine-coupled on CM5 chip (280 RU), antibody as analyte, pH 6.0, bivalent binding model
T1 construct: also called purified human FcRn
Method: Biacore analysis was performed on a Biacore-3000 instrument. The chip was regenerated between each binding using 7.4 pH Buffer.
The carboxylated dextran matrix of a CM5 sensor chip was used to couple the purified human or Cyno FcRn, by amine coupling chemistry to obtain 280 RU or 200 RU surface density, respectively. […] The data were analyzed by the BIA evaluation software 3.2 assuming bivalent binding model.

[1] = biological target: T2, anti-C5 mAb/FH SCR1-5 fusion protein FMEH-IgG4PLA-FH1-5 (human, UniProt P08603 19-322, limits assumed); test: SPR (Biacore-3000), Cyno FcRn amine-coupled on CM5 chip (200 RU), fusion protein as analyte, pH 6.0, bivalent binding model
T2 construct: domain: SCR 1-5; also called FMEH-FH1-5; FMEH-IgG4PLA-FH SCR1-5; not shown: human light chain constant region
T2 sequence (P08603 other isoform, or with tags, fused parts or gaps limits assumed): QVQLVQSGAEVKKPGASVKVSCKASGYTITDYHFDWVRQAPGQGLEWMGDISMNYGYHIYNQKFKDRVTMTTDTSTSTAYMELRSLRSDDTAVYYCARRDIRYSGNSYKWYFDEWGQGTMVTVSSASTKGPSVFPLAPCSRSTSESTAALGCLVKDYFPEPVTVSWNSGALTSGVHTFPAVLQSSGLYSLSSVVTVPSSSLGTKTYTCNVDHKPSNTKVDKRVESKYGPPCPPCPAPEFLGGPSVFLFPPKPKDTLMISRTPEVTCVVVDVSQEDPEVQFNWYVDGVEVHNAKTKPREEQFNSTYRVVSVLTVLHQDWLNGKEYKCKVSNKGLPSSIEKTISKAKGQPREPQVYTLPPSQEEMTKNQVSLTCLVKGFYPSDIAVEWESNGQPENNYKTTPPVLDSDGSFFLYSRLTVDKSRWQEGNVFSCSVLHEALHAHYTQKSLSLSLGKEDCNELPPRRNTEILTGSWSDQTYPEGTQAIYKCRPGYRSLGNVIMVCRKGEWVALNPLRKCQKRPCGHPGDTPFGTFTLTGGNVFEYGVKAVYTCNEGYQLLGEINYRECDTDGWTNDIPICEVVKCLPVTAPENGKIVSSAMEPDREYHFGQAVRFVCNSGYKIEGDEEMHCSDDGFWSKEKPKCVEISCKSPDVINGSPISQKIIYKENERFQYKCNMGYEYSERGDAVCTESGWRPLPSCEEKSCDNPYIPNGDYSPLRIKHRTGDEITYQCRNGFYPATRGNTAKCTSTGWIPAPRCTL

Kd (Cyno FcRn) | Kd (human FcRn) | Kd [1] | Binder
14 nM | 6.47 nM | – | anti-C5 mAb FMEH-IgG4PLA (antibody, also called FMEH PLA; FMEH-PLA; not shown: human light chain constant region) heavy: not shown light: DIQLTQSPSFLSASVGDRVTITCRTSKSISKHLAWYQQKPGKAPKLLIYSGSTLQSGVPSRFSGSGSGTEFTLTISSLQPEDFATYYCQQHNEYPYTFGQGTKLEIK
– | – | 39.1 nM | B1
